Data on one substance can be found in US20220090012A1.

The experiment has as its target Transforming Growth Factor Beta Receptor II (TGFBRII) (human) (UniProt P37173). Nature of the experiment: cell-based or functional assay.

Transforming Growth Factor Beta Receptor II (TGFBRII) (human), sequence (P37173 23-567): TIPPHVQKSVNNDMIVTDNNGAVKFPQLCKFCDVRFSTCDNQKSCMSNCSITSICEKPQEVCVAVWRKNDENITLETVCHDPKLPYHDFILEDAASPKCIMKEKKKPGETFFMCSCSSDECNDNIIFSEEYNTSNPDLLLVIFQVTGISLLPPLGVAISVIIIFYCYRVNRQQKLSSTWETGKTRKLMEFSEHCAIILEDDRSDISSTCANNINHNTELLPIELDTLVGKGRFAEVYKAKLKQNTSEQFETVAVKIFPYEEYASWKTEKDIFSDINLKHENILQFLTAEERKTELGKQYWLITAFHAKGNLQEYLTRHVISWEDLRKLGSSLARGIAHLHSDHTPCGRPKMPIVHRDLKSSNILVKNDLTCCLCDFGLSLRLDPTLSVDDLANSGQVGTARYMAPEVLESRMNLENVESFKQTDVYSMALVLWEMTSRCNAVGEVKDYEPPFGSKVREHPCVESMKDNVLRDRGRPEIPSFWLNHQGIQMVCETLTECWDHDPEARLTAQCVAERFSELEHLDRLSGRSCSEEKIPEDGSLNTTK

Regarding “recombinant human TGF-β (from UniProt P28072 35-239) (ligand)”, the CAR T cell expansion (cell number over time) with 10, 20, 50 and 100 ng/ml TGF-β was less than 10 ng/mL.
